# Measured values from IntAct's records for PubMed 25960410.
# B1: Mortality factor 4-like protein 1 (Homo sapiens), Q9UBU8-2 (parent)
# chain: MAPKQDPKPKFQEGERVLCFHGPLLYEAKCVKVAIKDKQVKYFIHYSGWNKNWDEWVPESRVLKYVDTNLQKQRELQKANQEQYAEGKMRGAAPGKKTSGLQQKNVEVKTKKNKQKTPGNGDGGSTSETPQPPRKKRARVDPTVENEETFMNRVEVKVKIPEELKPWLVDDWDLITRQKQLFYLPAKKNVDSILEDYANYKKSRGNTDNKEYAVNEVVAGIKEYFNVMLGTQLLYKFERPQYAEILADHPDAPMSQVYGAPHLLRLFVRIGAMLAYTPLDEKSLALLLNYLHDFLKYLAKNSATLFSASDYEVAPPEYHRKAV
# Variants of: B1
# Conditions: with mrgbp_human MRGBP
row,Variant,effect of a mutation on the interaction
1,L168A,decreasing interaction strength
2,W172A,decreasing interaction strength
3,L287A,decreasing interaction strength
